For assay [1], the target named is tissue factor (TF) antigen (UniProt P13726). In words: SPR (ProteOn XPR36), Fab captured on anti-penta-His surface, TF injected as analyte, 1:1 fit; batch C (marked +); reference wild-type D3H44 Fab.
Assay [2] has the same target. Put plainly: SPR (ProteOn XPR36), Fab captured on anti-penta-His surface, TF injected as analyte, 1:1 fit; batch C (marked +).
The target is the same in assay [3]. In words: SPR, His-captured Fab, TF as analyte; against wild-type D3H44 Fab; batch C (+). On the technique in general: In SPR one partner is held on a chip, and binding of the other changes the refractive index at the surface.
For assay [4] the target is unchanged. Put plainly: SPR, His-captured Fab, TF as analyte, 1:1 fit; batch C (+).
Assay [5] addresses D3H44 light chain Q124E_V133G_S176D_T178E_T180E. Put plainly: LCCA (co-expression, SPR tag read-out), L1:L2 DNA 1:3 normalised to 1:1; competing light chain m7.
The target is the same in assay [6]. Put plainly: LCCA (co-expression, SPR tag read-out), L1:L2 DNA 1:3 normalised to 1:1; competing light chain m8.
For assay [7], the target named is D3H44 light chain Q124E_V133G_S176D_T178D_T180E. Put plainly: LCCA (co-expression, SPR tag read-out), L1:L2 DNA 1:3 normalised to 1:1; competing light chain m7.
The target is the same in assay [8]. Put plainly: LCCA (co-expression, SPR tag read-out), L1:L2 DNA 1:3 normalised to 1:1; competing light chain m8.
Assay [9] addresses tissue factor (TF) antigen (human (from the antibody's name 'anti-human tissue factor'; not stated for the antigen lot in the assay)) (UniProt P13726). In words: SPR (ProteOn XPR36): Fab captured via His tag on anti-penta His surface, TF injected, 1:1 fit; batch C (+).
The target is the same in assay [10]. In words: SPR (ProteOn XPR36), Fab captured on anti-penta His, TF analyte; against wild-type D3H44 Fab; batch C (+).
The target in assay [11] is D3H44 Fab heavy chain S186K, ABD2-His6 tagged. In words: LCCA, SPR of light chain tags; L1:L2 DNA 1:9 normalized to 1:1; competing light chain m16.
Assay [12] addresses D3H44 Fab heavy chain L143E_K145T_Q179E, ABD2-His6 tagged. The description is as above.
Assay [13] concerns the target D3H44 Fab heavy chain S186K, ABD2-His6 tagged. In words: LCCA, SPR of light chain tags; L1:L2 DNA 1:3 normalized to 1:1; competing light chain m16.
The target in assay [14] is D3H44 Fab heavy chain L143E_K145T_Q179E, ABD2-His6 tagged. The description is as above.
Assay [15] addresses tissue factor (TF) antigen (UniProt P13726). In words: SPR; log change of median KD against wild-type D3H44 Fab; batch C (+).
For assay [16] the target is unchanged. Put plainly: SPR, Fab captured by anti-penta-His, TF injected, 1:1 fit; batch C (+).
For assay [17] the target is unchanged. Put plainly: SPR (ProteOn), Fab captured via anti-penta-His, TF injected, 1:1 fit.
The target is the same in assay [18]. In words: SPR (ProteOn), Fab captured via anti-penta-His, TF injected, 1:1 fit; reference wild-type D3H44 Fab.
The target in assay [19] is D3H44 light chain V133G_S176D_T178D_T180E. In words: LCCA (co-expression, SPR tag read-out), L1:L2 DNA 1:3 normalised to 1:1; competing light chain m7.
Assay [20] has as its target tissue factor (TF) antigen (UniProt P13726). Put plainly: SPR (ProteOn XPR36), Fab captured on anti-penta His surface, TF injected, 1:1 fit.
For assay [21] the target is unchanged. Put plainly: SPR (ProteOn XPR36), Fab captured on anti-penta His surface, TF injected, 1:1 fit; reference wild-type D3H44 Fab.
For assay [22], the target named is D3H44 Fab heavy chain Q179R, ABD2-His6 tagged. Put plainly: LCCA, SPR of light chain tags; L1:L2 DNA 1:9 normalized to 1:1; competing light chain m16.
Assay [23] has the same target. Put plainly: LCCA, SPR of light chain tags; L1:L2 DNA 1:3 normalized to 1:1; competing light chain m16.

Values joined by “and” are separate entries in the source; they are usually repeats but may differ in a detail not shown here. Identical values can stand only once.

Consider 22 substances from patent publication US11306156.

By Kd is commonly meant a measure of binding affinity in units of concentration. Read a low Kd as a tighter complex. As to “D3H44 H1L1 Fab heterodimer, H1 Q39E_L143E_K145T_Q179E, L1 Q38R_Q124R_Q160K_T178R”, in [1], the Change in median KD of h1l1 Fab heterodimer compared to wild type (-(log(KD design)-log(KD wt))) (log(KD) difference) was -0.1. The Kd in assay [2] worked out at 200 pM.

The substance “D3H44 Fab heterodimer H1L1 of LCCA Set # 9885 and 9886 (H1 S186R; L1 Q124E_S176L_T180E)” came in with a Change in median values of KD compared to wild type (-(log(KD design)-log(KD wt))) in assay [3] of -0.06 log. The substance further displayed a dissociation constant (Kd) in assay [4] of 180 pM.

In assay [3], “D3H44 Fab heterodimer H1L1 of LCCA Set # 9848 and 9847 (H1 S186K; L1 Q124E_S176L_T180E)” displayed a Change in median values of KD compared to wild type (-(log(KD design)-log(KD wt))) of 0.03 log. In assay [4], the Kd is 150 pM.

On to “D3H44 H1L1 Fab heterodimer, H1 Q39R_H172R_Q179K, L1 Q38E_Q124E_Q160E_T180E”, for which the Change in median KD of h1l1 Fab heterodimer compared to wild type (-(log(KD design)-log(KD wt))) (log(KD) difference) in assay [1] was -0.18. In assay [2], this substance registered a Kd of 240 pM.

D3H44 Fab heavy chain L124R_D146N_Q179K: the values for the H2L2:H2L1 normalized median ratio in [5] and in assay [6] were 90 parts of 100 and 89 parts of 100, respectively.

On to D3H44 Fab heavy chain L124R_S186R, for which the results for the H2L2:H2L1 normalized median ratio in assay [7] and in assay [8] were 92 parts of 100 and 95 parts of 100, respectively.

“D3H44 H1L1 Fab heterodimer, H1 Q39R_D146G_H172R_Q179K, L1 Q38E_Q124E_Q160E_T180E”: in assay [1], the Change in median KD of h1l1 Fab heterodimer compared to wild type (-(log(KD design)-log(KD wt))) (log(KD) difference) worked out at 0.38. Moreover, the Kd in assay [2] came to 70 pM.

The substance “D3H44 Fab heterodimer, H1 Q39E_L143E_K145T_H172R_Q179E / L1 Q38R_Q124R_Q160K_T178R (H1L1 Fab of LCCA set 9819)” registered a dissociation constant (Kd) in assay [9] of 150 pM. Further, in assay [10], the Change in median values of KD of h1l1 Fab heterodimer compared to wild type (-(log(KD design)-log(KD wt))) was 0.03.

With “D3H44 light chain Q124E_Q160E_T180E, HA or FLAG tagged”, the H2L2:H2L1 normalized median ratio in assay [11] and in assay [13] was 94% each time. The H1L1:H1L2 normalized median ratio was determined as 22% in [12] and 9% in assay [14].

On to “H1L1 Fab heterodimer of LCCA sets 9898, 9893, 9891 and 9896 (D3H44 Fab, H1 S186R, L1 Q124E_T180E)”, for which the Change in median values of KD of h1l1 Fab heterodimer compared to wild type (-(log(KD design)-log(KD wt))) in assay [15] was 0.36 log units. In assay [16], this substance had an equilibrium dissociation constant (Kd) of 70 pM.

In turn, “D3H44 Fab heterodimer, H1 Q39E_L143E_K145T_H172R / L1 Q38R_Q124R_Q160K_T178R (H1L1 Fab of LCCA set 9818)” had a dissociation constant Kd in assay [9] of 180 pM. The Change in median values of KD of h1l1 Fab heterodimer compared to wild type (-(log(KD design)-log(KD wt))) in [10] is -0.07.

“D3H44 Fab heterodimer H1L1 of LCCA Set # 9813 (H1 Q39E_K145T_H172R_Q179E; L1 Q38R_S131K)” returned a Change in median values of KD compared to wild type (-(log(KD design)-log(KD wt))) in assay [3] of -0.05 log. In addition, the dissociation constant (Kd) in [4] is 180 pM.

In turn, “H1L1 Fab heterodimer of LCCA sets 9858, 9853, 9855, 9862, 9863 and 9860 (D3H44 Fab, H1 S186K, L1 Q124E_T180E)” showed a Change in median values of KD of h1l1 Fab heterodimer compared to wild type (-(log(KD design)-log(KD wt))) in assay [15] of 0.46 log units. In assay [16], this substance yielded a dissociation constant (Kd) of 60 pM.

The substance “D3H44 Fab heterodimer (H1L1) of LCCA Sets # 9120, 9121: H1 L124E_H172T, L1 V133G_N137K_S174R_S176R” gave a Kd in [17] of 130 pM. For the same substance, in assay [18], the change in median KD compared to wild type, -(log(KD design)-log(KD wt)) was 0.03 and 0.08.

As for D3H44 Fab heavy chain L124E_K145M_Q179E, the H1L1:H1L2 normalized median ratio in [19] and in assay [5] was 6 parts of 100 in each case.

“D3H44 Fab heterodimer, H1 Q39E_K145T_Q179E / L1 Q38R_S131K (H1L1 Fab of LCCA set 9814)” yielded a dissociation constant Kd in assay [9] of 160 pM. Besides, the Change in median values of KD of h1l1 Fab heterodimer compared to wild type (-(log(KD design)-log(KD wt))) in assay [10] was -0.01.

The substance “H1L1 Fab heterodimer of LCCA sets 9812 and 9811 (D3H44 Fab, H1 Q179R, L1 Q124E_T178E_T180E)” gave a Change in median values of KD of h1l1 Fab heterodimer compared to wild type (-(log(KD design)-log(KD wt))) in [15] of -0.01 log units. Besides, the dissociation constant (Kd) in assay [16] is 160 pM.

Take “D3H44 Fab heterodimer (H1L1) of LCCA Set # 9397: H1 L124R_Q179K, L1 V133G_Q160E_S176D_T180E”: the Kd in assay [17] came out at 190 pM. The change in median KD compared to wild type, -(log(KD design)-log(KD wt)) in assay [18] was -0.08.

In assay [20], “D3H44 Fab heterodimer, H1 L124R_S186K / L1 V133G_S176D_T178D_T180E (H1L1 Fab of LCCA Sets # 9484, 9481, 9483)” registered a Kd of 180 pM. Moreover, the Change in median values of KD of h1l1 Fab heterodimer compared to wild type (-(log(KD design)-log(KD wt))) in assay [21] is -0.07.

In turn, “D3H44 Fab heterodimer (H1L1) of LCCA Sets # 9419, 9420, 9423, 9425, 9426: H1 L124R_Q179K, L1 V133G_S176D_T178E_T180E” displayed a dissociation constant (Kd) in assay [17] of 230 pM. In [18], this substance returned a change in median KD compared to wild type, -(log(KD design)-log(KD wt)) of -0.16.

Consider “D3H44 Fab heterodimer, H1 L124R_Q179K / L1 Q124E_V133G_S176D_T178E_T180E (H1L1 Fab of LCCA Set # 9388)”, for which the equilibrium dissociation constant (Kd) in [20] was determined as 220 pM. This substance had a Change in median values of KD of h1l1 Fab heterodimer compared to wild type (-(log(KD design)-log(KD wt))) in assay [21] of -0.15.

On to “D3H44 light chain Q124E_T178E_T180E, HA or FLAG tagged”, for which the H2L2:H2L1 normalized median ratio in [22] came out at 90%; in assay [11], 89%; in assay [23], 94%; in assay [13], 95%. The H1L1:H1L2 normalized median ratio in assay [12] and in assay [14] was 8% each time.
